Source: patent publication US7985736B2, “High throughput screen utilizing newly discovered intramolecular neuronal calcium channel interactions to discover new analgesics” (The John Hopkins University, priority 2004, dated 2011)

What was measured:
I-II loop of α1B (I-IIB) = target: T1, I-II loop of α1B (I-IIB) (Homo sapiens, UniProt Q00975); experiment: Yeast two-hybrid assay, NT peptides versus I-IIB; type: binding; conditions: NT segment in pGBKT7, I-IIB in pGADT7
T1 construct: I-IIB(357-482)-pGADT7 & lam-pGBKT7; expressed in transfected cells; host or cells: AH109 yeast
T1 sequence (Q00975 357-482): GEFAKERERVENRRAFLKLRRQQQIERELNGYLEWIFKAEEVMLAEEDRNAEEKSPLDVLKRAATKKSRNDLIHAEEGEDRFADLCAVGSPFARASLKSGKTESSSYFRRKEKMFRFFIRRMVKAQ
Source text: (§1) For yeast two-hybrid assays, a PCR fragment encoding one partner was fused, in-frame, with the GAL4 DNA binding domain (BD) in pGBKT7 (Clontech, Palo Alto, Calif.). The other element was fused, in-frame, with the GAL4 activation domain (AD) in pGADT7. For specific residues, see Supplemental Data (section 2). For electrophysiology, NT peptides lacking fluorophore tag were PCR amplified and cloned in pcDNA3. NTB peptide residues, 1-95; NTC residues, […]. Throughout, all segments subject to PCR or QuikChange were verified in their entirety by sequencing.
(§2) The Matchmaker GAL4 Two-Hybrid System 3 was used (Clontech, Palo Alto, Calif.). AH109 yeast were transformed with pGBKT7/pGADT7-based constructs (Yeastmaker Yeast Transformation System 2 kit, Clontech). After 5-8 days, growth on -leucine/-trytophan plates confirmed transformation of both plasmids. If partners interact, GAL4 BD/AD would complex, activating reporter genes (HIS3, ADE2, lacZ, and MEL1), for which assays are detailed in the Supplemental Data (section 2.1).
(§3) As a ‘medium’ stringency assay, expression of the lacZ gene was tested for encoding β-galactosidase, performing a filter lift with application of blue chromogenic substrate (Clontech-Laboratories, 1999). After the filter lift, original plates were re-grown for 2-3 days at 30° C. Filter paper was then used to replicate colonies onto a high stringency plate (-adenine/-histidine/-leucine/-trytophan). These plates were then incubated at 30° C. for 5-8 days. Survival on high stringency plates indicates production of both adenine and histidine, from transcription of the ADE2 and HIS3 genes, respectively. The percentage of colonies that turned blue in the filter lift assay, along with the percentage of colonies that survived on high stringency plates, was recorded for each pairing. Experiments were repeated at least three times. False positives were controlled for by testing each segment in pGBKT7 against empty pGADT7, and each segment in pGADT7 against lamin C in pGBKT7 (lamin C interacts with few proteins). Average sum of these backgrounds was subtracted from B to produce the net interaction parameter ΔB (FIG. 2).

Gβ1 = target: T2, Gβ1 (Bos taurus, UniProt P62871); experiment: Yeast two-hybrid assay, channel fragments versus Gβ1; type: binding; conditions: Gβ1 in pGADT7, channel fragment in pGBKT7
T2 construct: expressed in transfected cells; host or cells: AH109 yeast
T2 sequence (P62871 whole entry, the tested form may be a part): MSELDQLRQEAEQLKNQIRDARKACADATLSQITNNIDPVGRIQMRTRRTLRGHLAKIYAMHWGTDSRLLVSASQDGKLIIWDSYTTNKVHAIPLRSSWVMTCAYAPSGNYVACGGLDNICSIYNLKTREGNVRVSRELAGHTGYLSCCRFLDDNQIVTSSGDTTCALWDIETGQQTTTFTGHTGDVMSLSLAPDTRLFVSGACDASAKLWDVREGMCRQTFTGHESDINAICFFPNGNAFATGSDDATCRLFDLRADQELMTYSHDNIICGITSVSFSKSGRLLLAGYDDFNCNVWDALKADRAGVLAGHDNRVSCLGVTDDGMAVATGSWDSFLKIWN
Source text: as §1, §2
as §3, with “Average sum of these backgrounds was subtracted from B to produce the net interaction parameter ΔB (FIG. 2).” left out

I-IIC = target: T3, I-IIC (Oryctolagus cuniculus, UniProt P15381); experiment: Live-cell FRET two-hybrid assay versus I-IIC in HEK293 cells; type: binding, rabbit; conditions: compared with NTB/I-IIB pair
T3 construct: I-IIC residues, 436-554; expressed in transfected cells; host or cells: HEK293
T3 sequence (P15381 436-554): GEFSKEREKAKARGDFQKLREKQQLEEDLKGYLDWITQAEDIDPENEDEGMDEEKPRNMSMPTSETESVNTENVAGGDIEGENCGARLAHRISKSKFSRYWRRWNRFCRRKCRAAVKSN
Source text: To confirm preferential interaction of NTB with I-IIB a live-cell FRET two-hybrid assay was used (Erickson et al., 2003), in which NTB, NTC, I-IIB, and I-IIC were fused to either CFP or YFP, and the resulting fusion constructs expressed pair-wise in mammalian HEK293 cells. Given a Forster distance of ˜50 Å for the CFP/YFP pair (Patterson et al., 2000), the presence of FRET in individual cells would give a strong indication of interpeptide binding in the mammalian intracellular milieu. This indication is generally characterized by a low false-positive rate (Erickson et al., 2003), so that FRET assays provide a useful complement to yeast two-hybrid assays (Allen et al., 1995). […] SCFP (the signal derived from an image obtained with the CFP filter cube) is selective for CFP fluorescence and thereby gives an optical measure of NTB-CFP expression. Analogously, the SYFP signal, derived from preferential excitation and detection of YFP, estimates I-IIB-YFP levels. Finally, the SFRET signal reflects I-IIB-YFP fluorescence stimulated by FRET transfer from NTB-CFP, as well as secondary cross-talk signals. […]
Experiments were performed mostly as previously described (Erickson et al., 2001; Erickson et al., 2003). […] For donor-dequenching analysis, EEFF is calculated as EEFF=^1−CFPpre/CFPpost, where CFPpre and CFPpost are the CFP emissions before/after 3 min YFP photobleaching. […]

I-II loop of α1C (I-IIC) = target: T4, I-II loop of α1C (I-IIC) (Oryctolagus cuniculus, UniProt P15381); experiment: Yeast two-hybrid assay, NT peptides versus I-IIC; type: binding, rabbit; conditions: NT segment in pGBKT7, I-IIC in pGADT7
T4 construct: I-IIC (436-554)/pGBKT7; expressed in transfected cells; host or cells: AH109 yeast
T4 sequence (P15381 436-554): as above
Source text: as §1
The Matchmaker GAL4 Two-Hybrid System 3 was used (Clontech, Palo Alto, Calif.). AH109 yeast were transformed with pGBKT7/pGADT7-based constructs (Yeastmaker Yeast Transformation System 2 kit, Clontech). After 5-8 days, growth on -leucine/-trytophan plates confirmed transformation of both plasmids. […]
As a ‘medium’ stringency assay, expression of the lacZ gene was tested for encoding β-galactosidase, performing a filter lift with application of blue chromogenic substrate (Clontech-Laboratories, 1999). […] The percentage of colonies that turned blue in the filter lift assay, along with the percentage of colonies that survived on high stringency plates, was recorded for each pairing. […]

## NTC: NH3 terminus of L-type channel α1C subunit, free peptide [reference compound]
I-II loop of α1B (I-IIB)
  Interaction with I-IIB (yeast two-hybrid, ΔB): failed to reveal an association
Gβ1
  Interaction with Gβ1 (yeast two-hybrid): interact
I-IIC
  Kd,EFF for I-IIC (FRET), in words: larger by an order of magnitude or more
I-II loop of α1C (I-IIC)
  Interaction with I-IIC (yeast two-hybrid): failed to reveal an association

B1: NTB: NH3 terminus of N-type channel α1B subunit, residues 1-95, expressed as free peptide (SEQ ID NO.: 1) (protein, listed as Homo sapiens)
chain: MVRFGDELGGRYGGPGGGERARGGGAGGAGGPGPGGLQPGQRVLYKQSIAQRARTMALYNPIPVKQNCFTVNRSLFVFSEDNVVRKYAKRITEWP
I-II loop of α1B (I-IIB)
  Interaction with I-IIB (yeast two-hybrid, ΔB): positive
Gβ1
  Interaction with Gβ1 (yeast two-hybrid): interact
I-IIC
  Kd,EFF for I-IIC (FRET), in words: larger by an order of magnitude or more
I-II loop of α1C (I-IIC)
  Interaction with I-IIC (yeast two-hybrid): failed to reveal an association
